The record followed here is patent US20220356267A1.

For one test, the target named is CD73 on A549 cells (UniProt P21589). In words: cell-based or functional assay.
For test [1], the target named is recombinant human CD73 protein (ecto-5'-nucleotidase), expressed by the applicant, C-terminal 6x His tag (human) (UniProt P21589). In words: cell-based or functional assay.
Test [2] has the same target. In words: SPR, Biacore T200, antibody captured, human CD73 injected, 25 °C, 1:1 fit. In general terms: In SPR one partner is held on a chip, and binding of the other changes the refractive index at the surface.

Consider MEDI-9447 (antibody), for which the EC50 (µg/mL), Cell level (A549 cells), inhibition of the enzyme activity of CD73 with CD73 on A549 cells turned out to be 0.113 µg/mL. Moreover, in test [1], the EC50 (µg/mL), Biochemical level, inhibition of the enzyme activity of CD73 turned out to be 0.188 µg/mL. Further, in test [2], the dissociation constant (Kd) turned out to be 0.107 nM, the koff amounted to 6.9e-05 s⁻¹ and the on-rate (kon) was 647000 M⁻¹ s⁻¹.

For orientation: Kd means a measure of binding affinity in units of concentration. As a reminder, the koff is the first-order rate constant of dissociation. For orientation: kon means a measure of how fast the partners come together.
